# From PMC6751697
# Biological target: fluorescein-labeled 16-mer Pogo Ligase peptide (FAM-PL)
# Experiment: fluorescence polarisation
# Chain of recombinant (His)6-PCNA protein (proliferating cell nuclear antigen) (P12004 whole entry): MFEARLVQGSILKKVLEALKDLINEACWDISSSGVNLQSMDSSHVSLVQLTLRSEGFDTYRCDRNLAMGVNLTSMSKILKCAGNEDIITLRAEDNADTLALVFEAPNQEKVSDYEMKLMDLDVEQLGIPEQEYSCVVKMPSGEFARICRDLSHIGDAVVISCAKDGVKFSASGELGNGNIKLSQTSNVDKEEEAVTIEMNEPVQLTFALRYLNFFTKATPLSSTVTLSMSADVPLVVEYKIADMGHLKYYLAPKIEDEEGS
substance,measurement,value
recombinant (His)6-PCNA protein (proliferating cell nuclear antigen) (from UniProt P12004 1-261) (natural protein),"percent of peptide bound (5 nM FAM-PL, 1 uM PCNA)",> 80%
